Read-outs that look alike come from different tables or passages of the source.
B1: Dam1C/DASH heterodecamer (recombinant) (complex, S. cerevisiae)
chain 1: MSEDKAKLGTTRSATEYRLSIGSAPTSRRSSMGESSSLMKFADQEGLTSSVGEYNENTIQQLLLPKIRELSDSIITLDSNFTRLNFIHESLADLNESLGSLLYGIMSNSWCVEFSQAPHDIQDDLIAIKQLKSLEDEKNNLVMELSNMERGIKRKKDEQGENDLAKASQNKQFNQPLFPSSQVRKYRSYDNRDKRKPSKIGNNLQVENEEDYEDDTSSEASFVLNPTNIGMSKSSQGHVTKTTRLNNNTNSKLRRKSILHTIRNSIASGADLPIENDNVVNLGDLHPNNRISLGSGAARVVNGPVTKNRNSMFSGRAERKPTESRHSVAKKTEKKINTRPPFR
chain 2: MMASTSNDEEKLISTTDKYFIEQRNIVLQEINETMNSILNGLNGLNISLESSIAVGREFQSVSDLWKTLYDGLESLSDEAPIDEQPTLSQSKTK
chain 3: MDSIDEQIAIKRKELQSLQKITSLTDGLKIQLTELNEQIKEMGMNADSVAQLMNNWDSIINNISQASLGLLQYAEGDYEIGPWKDSKKKESEQSNETGLEAQENDKNDEDNDEDEDLVPLPETMVRIRVDGNE
chain 4: MEHNLSPLQQEVLDKYKQLSLDLKALDETIKELNYSQHRQQHSQQETVSPDEILQEMRDIEVKIGLVGTLLKGSVYSLILQRKQEQESLGSNSK
chain 5: MENPHEQVQANILSRIIGNVKRLNESVAILNQELVTINNRNKNLEIMGAICDNYHSSVQFNLEATNNKKPPL
chain 6: MSEQSQLDDSTIDKLIPQIFNEMRSNLNNTTNKFPKSTGGGASDNISANSNSIRSFNSITTQSLLKESESLDKITAMIKNVTAALKNNLPVYVNQVHEVCKSTNSILDSWINIHSQAGYIHKLMSDQTYLKLINDRLHNENVNTNDEDGSTLHNVIALKKKEILDLRQKLENRKGEKDAAPAKPPNQGLNPRYGVQSGRRPVPSAGISNNGRVRKTHVPASKRPSGIPRVTNRWTKPTASSSRKMFR
chain 7: MDSASKEETLEKLDQEITVNLQKIDSNLSFCFHKITQDIIPHVATYSEICERIMDSTEWLGTMFQETGLVNLQANAAAPVGNAPVKSLVSNNVGIFPTSAEEASRQSQTDNGPNEADSAVHVNRDVHSMFNNDSIDDFHTANITSTGQILKLPDSSDEDTGSEAVPSREQTDLTGEGHGGADDEQDESTIQRQSRKRKISLLLQQQYGSSSSMVPSPIVPNKMRKQLAHEEHINNDGDNDDENSNNIESSPLKQGHHHPKGQADDNNEGPDEEESTKEVPKPGTIIHFSTNR
chain 8: MTDALEQSVLALEGTVSVLKDSVESLKCANEPSTNLASTMLQTKRVFRLVPEYDVERSKLDLIEEVEPLVRTLGDKLRKSMGRMQRELDTLQQTYELNDLRLKKNISMDDDDALNSPDMGQEYEGRDADDVVMMASSTNEELEELKKLKEKKKQLENKLEILKQK
chain 9: MGESLDRCIDDINRAVDSMSTLYFKPPGIFHNAILQGASNKASIRKDITRLIKDCNHDEAYLLFKVNPEKQSVSRRDGKEGVFDYVIKRDTDMKRNRRLGRPGEKPIIHVPKEVYLNKDRLDLNNKRRRTATTSGGGLNGFIFDTDLIGSSVISNSSSGTFKALSAVFKDDPQIQRLLYALENGSVLMEEESNNQRRKTIFVEDFPTDLILKVMAEVTDLWPLTEFKQDYDQLYHNYEQLSSKLRFIKKEVLLQDDRLKTMSQYHPSSSHDVAKIIRKEKDEIRRLEMEIANLQE
chain 10: MNANKQRQYNQLAHELRELQTNLQETTKQLDIMSKQCNENLVGQLGKVHGSWLIGSYIYYMEQMLGKTQ
B2: Dam1C/DASH outer kinetochore complex in yeast cells (in vivo) (complex)
chain 1: B1 chain 1
chain 2: B1 chain 2
chain 3: B1 chain 3
chain 4: B1 chain 4
chain 5: B1 chain 5
chain 6: B1 chain 6
chain 7: B1 chain 7
chain 8: B1 chain 8
chain 9: B1 chain 9
chain 10: B1 chain 10

Key:
cryo-EM structure [1] = target: the molecule itself; assay: cryo-EM structure
cryo-EM structure [2] = target: the molecule itself; assay: cryo-EM structure; remark: listed apart in the source

Protein	stoichiometry N (cryo-EM structure [1])	stoichiometry N (cryo-EM structure [2])
B1	17	–
B2	–	17

Reference: paper PMC6363454 (The Journal of Cell Biology, 2019)
